From patent US20240026407A1, “MODIFICATION OF SAPONINS” (GLAXOSMITHKLINE BIOLOGICALS SA, priority 2020, published 2024)

Key:
[1] = Example 9: screening of rhamnosidase variants for derhamnosylation of saponins in crude bark extract; format: biochemical, Quillaja saponaria; conditions: R5 round: 35 deg C, 18 h, lysate 0.0625% v/v, CBE 75% v/v, 100 mM Sodium acetate pH 5.8
Procedure: Libraries of genetic variants encoding mutations in the wild type Kribbella flavida rhamnosidase (SEQ ID No. 1017) were prepared using molecular biology techniques, enzymes were prepared linked to a C-terminally located His-tag. Single monoclonal colonies were grown in 400 ul of expression medium and protein expressed. Cell pellets were lysed in 200 ul of the relevant buffer (Table 17).
Lysate was diluted appropriately in the relevant buffer to allow a lysate loading of the indicated % loading (1% loading corresponds to use of 2 ul original lysate in a 200 ul reaction).
Crude bark extract (CBE) obtained by aqueous extraction of Quillaja saponaria and containing at least 2.80 mg/ml QS-21 (by HPLC-UV) was adjusted to pH 6 by dropwise addition of 2M NaOH with stirring. The relevant concentration of the relevant glucosidase was added. The appropriate relative volume of pH 6 CBE (160 ul (for 80%) or 150 ul (for 75%)) was added to each well of the reaction plate. The reaction plate was sealed and incubated at the relevant temperature and time.
The reaction plate was quenched by adding 200 uL of MeCN (2% AcOH, 1 mg/mL hexanophenone) to each well of the plates. The quenched reaction plate was re-sealed and incubated at 20 deg C. with shaking for 10 min. The reaction plate was then centrifuged (10 min, 4 degC).
200 uL was transferred from each well of the quenched plate to the corresponding wells of a fresh 96 well plate and sealed. The plate was analysed by UV HPLC with the method described in Example 4.
Three key peaks of interest are apparent using this chromatography: Left Peak (retention time approximately 2.30-2.35 min) comprising mainly QS-17 family components; Middle Peak (retention time approximately 2.37-2.42 min) comprising mainly QS-18 family components and desglucosyl-QS-17 family components; and Right Peak (retention time approximately 2.44-2.50 min) comprising mainly QS-21 family components. Peak identity was supported by MS/MS.
Enzyme activity is calculated as the % conversion of the Left Peak present in the crude bark extract: […]

[2] = Example 10: derhamnosylation of saponins in crude bark extract (50%) using WT and engineered rhamnosidases R1 to R5; format: biochemical, Quillaja saponaria; conditions: 50% CBE, 35 degC; for % Right Peak: starting CBE 26; for % Left Peak: starting CBE 30; for % Middle Peak: starting CBE 44
Procedure: Lyophilised powders from clarified cell lysate expressing glucosidases (from Example 8 WT glucosidase and engineered glucosidase polypeptides G1 to G5) and rhamnosidases (from Example 9 WT rhamnosidase and engineered rhamnosidase polypeptides R1 to R5) were dissolved in 200 mM sodium acetate aqueous solution at pH 5.8 to prepare the enzyme solutions at 4 fold the final reaction concentration as shown in Tables 19 and 20.
Each rhamnosidase solution was combined with an equal volume of 200 mM sodium acetate aqueous solution at pH 5.8 and separately with an equal volume of 200 mM sodium acetate aqueous solution at pH 5.8 containing 2 mg/ml glucosidase G5. This is a sufficient loading of glucosidase to effect complete hydrolysis of the relevant glucose moiety within 4 hours.
CBE was adjusted to pH of 6.0 to 6.2 with 2M sodium hydroxide and an equal volume added to the enzyme solution to prepare the reaction mix (i.e. 50% CBE concentration in reaction mix) and the concentration of glucosidase and/or rhamnosidase is shown in Tables 19 and 20. The reaction mix was heated to 35 degC for the time indicated in Tables 19 and 20, after which the reaction was quenched by addition of an equal volume of MeCN containing 2% acetic acid and shaken at room temperature for 10 mins prior to centrifugation (10 min, 4 degC) to remove particulates. Samples were analysed by UV HPLC using method of Experiment 4-4.
The change in composition of the Left, Middle and Right peaks is shown in Tables 19 and 20. The composition changes by the action of the enzymes depending on the presence or absence of the partner enzyme. The extent of reaction is proportional to the enzyme concentration and the reaction time under these conditions. The tables show data for enzyme concentrations and the reaction times providing for equivalent extents of reaction. The improvement resulting from the mutations introduced for each variant is equal to the fold change in enzyme concentration×time (i.e. fold improvement=(enzyme concentration×time) for preceding variant÷(enzyme concentration×time) for later variant). A cumulative fold improvement over the original enzyme variant is calculated by the product of the individual fold improvements.

[3] = rhamnosidase 0.16 mg/ml, no glucosidase, 7 h
[4] = rhamnosidase 0.31 mg/ml + glucosidase G5 0.5 mg/ml, 4 h

- Right Peak % ([1]; negative control 26.23): 26.93%
- Left Peak % ([1]; negative control 28.76): 26.59%
- Middle Peak % ([1]; negative control 45.00): 46.48%
- Cumulative Fold improvement in primary enzyme loading × time [2, 3]: 31
- Fold improvement in primary enzyme loading × time [2, 3]: 1.9
- Cumulative Fold improvement in primary enzyme loading × time [2, 4]: 27
- Fold improvement in primary enzyme loading × time [2, 4]: 1.7
B1: Variant R5: engineered rhamnosidase polypeptide, variant of Kribbella flavida rhamnosidase SEQ ID No. 1017 (protein)
chain: MSFPAAPARLRFEHRTDPGPVLGIGTATPRLSWQVPTAPDDYRQAGYEVEIARGDAAPEQYTVDSADQVLVPWPGTPLAARESATVRVRVRGDGDWSQWSDPATVEAGLLSADDWTARFVSPRENAGHEAPAPLIGGVIDLPPDIAQARLYATAHGIYEPTLNGTRVGDEQLAPGWTAYEQRLRYQTYDVTDLVAPGENRLELLVGNGWYRGRMSFHDGHSLYGDRLAVLAQLEVTTATGEVKVLASDGTWTTRETNVLADDLYDGQHVDLRRTLGEPGPVDVLDADLSLLVAPDGPPVRVTDVLPAKAVTTSPAGKTLVDFGQNVVGRLRLRVRGGAAGDEIVLRHAEVLEDGELCVRPLRTAKATDSFVLAGPDEVTLEPTLTFHGFRYAEITGVPDLRAEDVEAVVVGSDLRRTGWFESSHPLLDRFHENVVWGMRGNFLDVPTDCPQRDERLGWTGDIQVFSPTASFLFDTAGFLTNWLADLIAEQHKDGSVPFVVPDVLRQPSPATAAWGDAATIVPWVLYERTGDAGLLARQLPSMRAWVDRMAGLAGDDLLWVGGFQFGDWLDPTAPPDDPFRAKADPDVLATAHLARSAEVVALAAEVVGAGELAREYAELAARVRQAFAAEYTTASGRVLSDAATNYALALQWALLPTEAQRKRAGERLADLVRTAGFRISTGFVGTPLMCDALADSGHPDLAYRLLLETGCPSWLYAVTMDATTVWERWDSMLPDGSINPGQMTSFNHYALGAVADWMHRRVAGLAPGDPGYRRIVVDPLFTAHLTKASARHLTPYGEAAVAWSRSGGRVRLEVTVPVGARARVAVPGESAPVEVGHGTHEWTADDVYGETPPLPADATIRQLIDHEPSWTTLAAAATRTGIVADDAELAGRLERYLDHPATELVDAVSPRGFSPSAEALHAELDSVLGR
modifications: Seq ID No. 1017 with mutations A143P, L214M, G215S, G218D, K219G, G357C, G508S, G634A, A690C, Q921H
- % conversion (Right peak/Left Peak) (−neg control) [1]: 2.62%
- Cumulative FIOP from WT ([1]; estimate): 28.7
- % conversion (Right peak/Left Peak) ([1]; negative control 47.70): 50.32%
- FIOP (% area increase variant/pos control) ([1]; positive control R4): 1.3
- time to complete hydrolysis of the relevant rhamnose moiety ([2]; 2 mg/ml rhamnosidase R5 solution (before mixing with glucosidase solution and CBE)): ≤ 4 h
- cumulative fold improvement over WT rhamnosidase ([2]; from enzyme concentration x time for equivalent extent of reaction): approximately 30 fold
- % change in Left Peak [2, 3]: −45%
- % change in Middle Peak [2, 3]: 27%
- % change in Right Peak [2, 3]: 106%
- % Right Peak [2, 3]: 28%
- % Left Peak [2, 3]: 17%
- % Middle Peak [2, 3]: 56%
- % change in Left Peak [2, 4]: −34%
- % change in Middle Peak [2, 4]: −93%
- % change in Right Peak [2, 4]: 296%
- % Right Peak [2, 4]: 77%
- % Left Peak [2, 4]: 20%
- % Middle Peak [2, 4]: 3%
